For this assay, the target named is T1, human GPVI on platelets (human, UniProt Q9HCN6 21-339).
T1 sequence (looked up): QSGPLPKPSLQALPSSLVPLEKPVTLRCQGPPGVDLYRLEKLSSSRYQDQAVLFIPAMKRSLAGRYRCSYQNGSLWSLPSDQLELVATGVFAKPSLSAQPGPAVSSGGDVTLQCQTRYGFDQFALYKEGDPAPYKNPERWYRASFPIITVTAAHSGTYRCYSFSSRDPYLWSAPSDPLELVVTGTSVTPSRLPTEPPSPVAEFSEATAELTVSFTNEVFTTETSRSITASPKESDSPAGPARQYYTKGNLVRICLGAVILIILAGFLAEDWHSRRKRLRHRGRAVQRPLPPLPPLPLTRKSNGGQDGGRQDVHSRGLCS
Put plainly: cell-based or functional assay.

Several values for one entry are separate records, joined by “and”; a condition that tells them apart may be missing. Equal entries are not always repeated.

B1: humanized anti-GPVI Fab VL1 with VH2 (Fab, V domains shown)
VH: QVQLQESGPGLVAPSQSLSITCTVSGFSLTGYGVNWVRQPPSRGLEWLGMIWGDGSTDYQSTLKSRLSISKDNSKSQVFLKMNSLTTDDTARYYCARDLPMDYWGQGTSVTVSS
VL: DIQMTQSPSSLSASVGGRVTITCKASQDINKYIAWYQHKPGKGPSLLIHYTSTLQPGVPSRFSGSGSGRDYSFSISNLQPEDIATYYCLQYANLLTFGGGTKLEIKR
Consider B1, for which the “IC50 for inhibition of collagen induced platelet aggregation (human platelet rich plasma)” value (shortened to “IC50 for inhibition”) is 2.3 µg/mL and 2 µg/mL and 1.1 µg/mL.

B2: humanized anti-GPVI Fab VL1 with VH4 (Fab, V domains shown)
VH: QVQLQESGPGLVAPSQSLSITCTVSGFSLTYYGVNWVRQPPSRGLEWLGMIWGDGSTDYQSTLKSRLSISKDNSKSQVFLKMNSLTTDDTARYYCARDLPMDYWGQGTSVTVSS
VL: DIQMTQSPSSLSASVGGRVTITCKASQDINKYIAWYQHKPGKGPSLLIHYTSTLQPGVPSRFSGSGSGRDYSFSISNLQPEDIATYYCLQYANLLTFGGGTKLEIKR
As to B2, the “IC50 for inhibition” value was 1.6 µg/mL and 1.8 µg/mL and 1.2 µg/mL.

B3: humanized anti-GPVI Fab VL2 with VH2 (Fab, V domains shown)
VH: QVQLQESGPGLVAPSQSLSITCTVSGFSLTGYGVNWVRQPPSRGLEWLGMIWGDGSTDYQSTLKSRLSISKDNSKSQVFLKMNSLTTDDTARYYCARDLPMDYWGQGTSVTVSS
VL: DIQMTQSPSSLSASVGGRVTITCKASQDINKYIAWYQHKPGKGPSLLIHYTSTLQPGVPSRFSGSGSGRDYSFSISNLQPEDIATYYCLQYAHLLTFGGGTKLEIKR
As to B3, the “IC50 for inhibition” value was 1.4 µg/mL and 2.4 µg/mL and 2.3 µg/mL.

B4: humanized anti-GPVI Fab VL3 with VH4 (Fab, V domains shown)
VH: QVQLQESGPGLVAPSQSLSITCTVSGFSLTYYGVNWVRQPPSRGLEWLGMIWGDGSTDYQSTLKSRLSISKDNSKSQVFLKMNSLTTDDTARYYCARDLPMDYWGQGTSVTVSS
VL: DIQMTQSPSSLSASVGGRVTITCKASQDINKYIAWYQHKPGKGPSLLIHYTSTLQPGVPSRFSGSGSGRDYSFSISNLQPEDIATYYCLQYALLLTFGGGTKLEIKR
As for B4, the “IC50 for inhibition” value is 1 µg/mL and 2.3 µg/mL and 2 µg/mL.

B5: humanized anti-GPVI Fab VL1 with VH5 (Fab, V domains shown)
VH: QVQLQESGPGLVAPSQSLSITCTVSGFSLTGYGVNWVRQPPSRGLEWLGMIWGDGSTDYQSTLKSRLSISKDNSKSQVFLKMNSLTTDDTARYYCARDLPMDEWGQGTSVTVSS
VL: DIQMTQSPSSLSASVGGRVTITCKASQDINKYIAWYQHKPGKGPSLLIHYTSTLQPGVPSRFSGSGSGRDYSFSISNLQPEDIATYYCLQYANLLTFGGGTKLEIKR
On to B5, for which the “IC50 for inhibition” value is 1.9 µg/mL and 2.3 µg/mL and 1.2 µg/mL.

B6: humanized anti-GPVI Fab VL3 with VH2 (Fab, V domains shown)
VH: QVQLQESGPGLVAPSQSLSITCTVSGFSLTGYGVNWVRQPPSRGLEWLGMIWGDGSTDYQSTLKSRLSISKDNSKSQVFLKMNSLTTDDTARYYCARDLPMDYWGQGTSVTVSS
VL: DIQMTQSPSSLSASVGGRVTITCKASQDINKYIAWYQHKPGKGPSLLIHYTSTLQPGVPSRFSGSGSGRDYSFSISNLQPEDIATYYCLQYALLLTFGGGTKLEIKR
In the case of B6, the “IC50 for inhibition” value is 1.9 µg/mL and 0.9 µg/mL and 2.1 µg/mL.

B7: humanized anti-GPVI Fab VL1 with VH3 (Fab, V domains shown)
VH: EVQLLESGPGLVAPSGSLSITCTVSGFSLTGYGVNWVRQPPGKGLEWLGMIWGDGSTDYQSTLKSRLSISKDNSKSQVFLKMNSLRTDDTARYYCARDLPMDYWGLGTSVTVSS
VL: DIQMTQSPSSLSASVGGRVTITCKASQDINKYIAWYQHKPGKGPSLLIHYTSTLQPGVPSRFSGSGSGRDYSFSISNLQPEDIATYYCLQYANLLTFGGGTKLEIKR
For B7, the “IC50 for inhibition” value was 1.5 µg/mL and 1.7 µg/mL.

B8: humanized anti-GPVI Fab VL1 with VH1 (Fab, V domains shown)
VH: QVQLQESGPGLVAPSQSLSITCTVSGFSLTGYGVNWVRQPPSRGLEWLGMIWGDGSTDYQSTLKSRLSISKDTSKSQVFLKMNSLTTDDTARYYCARDLPMDYWGQGTSVTVSS
VL: DIQMTQSPSSLSASVGGRVTITCKASQDINKYIAWYQHKPGKGPSLLIHYTSTLQPGVPSRFSGSGSGRDYSFSISNLQPEDIATYYCLQYANLLTFGGGTKLEIKR
Consider B8, for which the “IC50 for inhibition” value is 1.5 µg/mL and 2.3 µg/mL.

The record behind these values is patent publication EP2336188A1 (Sanofi-Aventis, dated 2011).
